# Assay results taken from PMC10147376.
# Target: Flotillin A (FloA) tagged with hexa-histidine (floA-6xHis) (S. aureus Newman)
# Experiment: pull-down; Ni-NTA (IMAC) affinity chromatography of S. aureus Newman membranes solubilised in 50 mM Tris HCl pH 8, 250 mM NaCl, 1% DDM, 4°C; FloA-His held, IsdF-3xFLAG in the 50 mM imidazole eluate detected by anti-FLAG blot; control strain with untagged FloA WT set to 1; called co-immunoprecipitation by the paper
# Chain of Flotillin A (FloA) tagged with hexa-histidine (floA-6xHis) (S. aureus Newman) (A6QHB6 whole entry): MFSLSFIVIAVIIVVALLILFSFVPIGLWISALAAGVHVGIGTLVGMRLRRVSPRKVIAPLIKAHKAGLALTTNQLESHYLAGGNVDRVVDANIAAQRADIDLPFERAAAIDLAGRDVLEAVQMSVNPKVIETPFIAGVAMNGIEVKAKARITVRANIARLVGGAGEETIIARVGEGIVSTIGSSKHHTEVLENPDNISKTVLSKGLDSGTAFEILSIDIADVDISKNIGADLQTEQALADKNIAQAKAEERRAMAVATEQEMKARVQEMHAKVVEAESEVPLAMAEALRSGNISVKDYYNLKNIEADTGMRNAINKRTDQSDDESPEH
substance,measurement,value
IsdF with a triple FLAG tag (pRB474:isdF-3xFLAG) (from UniProt Q2FHU7 1-322) (natural protein),fold IsdF-3xFLAG signal in the Ni-NTA eluate against the strain with untagged FloA WT (set to 1),3 fold
